The text below walks through data of patent US20240327525A1 (VIB VZW, published 2024).

Assay [1] concerns the target T1, human cation-independent mannose-6-phosphate receptor on cells (human, UniProt P11717 41-2491).
T1 construct: Endogenous receptor on MCF7 cells (live-cell imaging) and HeLa cells (LYTAC assays); also called cell-surface hCI-M6PR; native hCI-M6PR
The assay can be described thus: live-cell imaging of the uptake of AF488-labelled VHH by MCF7 cells. The method, then: For live-cell imaging, 2×10⁴ MCF7 cells/well were seeded in OptiMEM medium and incubated the next day with Lyso Tracker Deep Red DND-99 (50 nM, Thermo Fischer, L12492) for 30 minutes at 37° C., 5% CO₂ and washed with OptiMEM after which 7.5 μM AF488 labelled anti-CI-M6PR VHHs (in OptiMEM) were incubated on the cells. For every well (i.e. anti-CI-M6PR VHH), Z-stacks were taken at three different positions every six minutes, for three hours in total. Z-slices (12) were acquired per position at a step size of 1.5 μm and XY pixel size was 275 nm by 275 nm. Excitation and emission wavelengths of the fluorescent compounds used were LTR (λEx: 633 nm and λEm: 665-715 nm), AF488 (λEx: 488 nm and λEm: 520±35 nm), Hoechst/DAPI (λEx: 405 nm and λEm: 420-470 nm).

Assay [2] has as its target T1, human cation-independent …. The assay can be described thus: cell-based or functional assay.
In assay [3] the target is T2, human CI-M6PR domain1-3His6 (human, UniProt P11717 41-467).
T2 construct: Recombinant, made in HEK293 cells; Biotinylated with NHS-PEG4-biotin for BLI; unlabelled in SEC-MALLS and crystallisation; also called CI-M6PR hDom1-3His6; hDom1-3His6
Description: BLI, association pH 7.4, dissociation at pH 5.5, mean of local fits. The method, then: (§1) FIGS. 9A-9E. […] BLI was performed on an Octet Red96 (FortéBio) instrument in kinetics buffer (0.2 M Na₂HPO₄, 0.1 M Na⁺citrate, 0.01% bovine serum albumin, 0.002% Tween-20). Biotinylated human domain₁₋₃His₆ was immobilized on Streptavidin SA biosensors (Sartorius) to a signal of 0.6 nm. […] Between runs, biosensors were regenerated by three times 10 s exposure to regeneration buffer (10 mM glycine pH 3). The degree of association and dissociation was measured in δ nm over time(s).
(§2) FIGS. 10A-10E. […] BLI was performed on an Octet Red96 (FortéBio) instrument in kinetics buffer (0.2 M Na₂HPO₄, 0.1 M Na⁺citrate, 0.01% bovine serum albumin, 0.002% Tween-20). Biotinylated human domain₁₋₃His₆ was immobilized on Streptavidin SA biosensors (Sartorius) to a signal of 0.6 nm. […] Between assays, biosensors were regenerated by three times 10 s exposure to regeneration buffer (10 mM glycine pH 3). The degree of association and dissociation was measured in δ nm over time(s).
In general terms: BLI is a label-free optical method that tracks binding on a fibre tip over time.

Assay [4] deals with T2, human CI-M6PR domain1-3His6. Description: BLI, association pH 7.4, dissociation at pH 6.0, mean of local fits. The method, then:
as §1, §2

The target is the same in assay [5]. Description: BLI, association pH 7.4, dissociation at pH 6.5, mean of local fits. As to the method: as §1, §2
Assay [6] has the same target. The assay can be described thus: BLI, biotinylated antigen on SA tips, global 1:1 fit, dissociation at pH 7.4. As to the method:
(§3) Biotinylated human domain₁₋₃His₆ was immobilized on Streptavidin SA biosensors (Sartorius) to a signal of 0.6 nm. […] Between runs, biosensors were regenerated by three times 10 s exposure to regeneration buffer (10 mM glycine pH 3). The degree of association and dissociation was measured in δ nm over time(s).
as §2
(§4) After loading, the tips were incubated with VHHs serially diluted in pH 7.4 kinetic buffer during the association phase and dissociation was performed at pH 7.4, pH 6.5, pH 6.0, pH 5.5 and pH 5.0. All biosensor tips were then regenerated before analysis of the subsequent VHH. Table 3 summarizes the kinetic parameters retrieved after processing and curve fitting of the BLI measurements.

Assay [7] shares this target. The assay can be described thus: BLI, biotinylated antigen on SA tips, global 1:1 fit, association at pH 7.4. The method, then: as §3, §2, §4
Assay [8] has the same target. Description: BLI, association pH 7.4, dissociation at pH 5.0, mean of local fits. The method, then:
as §1, §2

B1: anti-CI-M6PR VHH11 (VHH)
VHH: QVQLQESGGGLVQAGDSLKLSCTASGPTFSEITGGWFRQVPGKEREFVASISSTGITTYYTDSVKGRFTVSRDNAKNTMYLQMNSLKPEDTGVYYCAARSTSRSIAITVGYDYWGQGTQVTVSS
modifications: Alexa Fluor 488 NHS ester label on amines
notes: Tag not specified
In the case of B1, in assay [1], the binding result is “no binding (tested: 7.5 µM)”.

B2: anti-CI-M6PR VHH5 (VHH)
VHH: QVQLQESGGGLVQAGGSLKLSCAAAGRTFSRLAMGWFRQAPGKEREFVAAISENGDSIHYSDSVKGRFAVSRDNAKNTVYLQMNSLKPEDTAIYYCAADRAAYYCSGSGCYPSRAPAAASYDYWGQGTQVTVSS
With B2, the “internalisation rate (live-cell imaging of AF488-VHH on MCF7 cells)” value in assay [2] was found to be 687000 summed AF-voxels/minute.

B3: humanized variant VHH8h2 (VHH)
VHH: DVQLVESGGGLVQPGGSLRLSCAASGRTFNTYNWGWFRQAPGKEREFVAAIRWSSSKTSYADSVKGRFTISRDNSKNTVYLQMNSLRPEDTAVYYCAASIVDFTTNPSHFGSWGQGTLVTVSS
notes: Made in E. coli, IMAC purified; tag not specified
As for B3, the dissociation rate constant (koff) – broadly, a measure of how fast the partners let go of each other – came to 0.0044 s⁻¹ in assay [3]; 0.0015 s⁻¹ in assay [4]; 0.0011 s⁻¹ in assay [5]; 0.00067 s⁻¹ in assay [6]; 0.041 s⁻¹ in assay [8]. The Kd (commonly a measure of binding affinity in units of concentration) in assay [6] came out at 3.07 nM. Further, the kon (in general, the rate constant with which the complex forms) in assay [7] was 220000 M⁻¹ s⁻¹.

B4: humanized variant VHH8h1 (VHH)
VHH: EVQLVESGGGLVQPGGSLRLSCAASGRTFNTYNWGWFRQAPGKEREFVAAIRWSSSKTSYADSVKGRFTISRDNSKNTVYLQMNSLRPEDTAVYYCAASIVDFTTNPSHFGSWGQGTLVTVSS
notes: as for B3
Regarding B4, the koff in assay [3] turned out to be 0.0043 s⁻¹; in assay [4] it was 0.0015 s⁻¹; in assay [5] it was 0.00053 s⁻¹; in assay [6], 0.00048 s⁻¹; in assay [8], 0.029 s⁻¹. For the same molecule, the Kd in assay [6] is 1.06 nM. The kon in assay [7] turned out to be 450000 M⁻¹ s⁻¹.

B5: humanized variant VHH8h3 (VHH)
VHH: DVQLVESGGGLVQAGGSLRLSCAASGRTFNTYNWGWFRQAPGKEREFVAAIRWSSSKTSYADSVKGRFTISRDNSKNTVYLQMNSLRPEDTAVYYCAASIVDFTTNPSHFGSWGQGTLVTVSS
notes: as for B3
As to B5, the koff in assay [3] was determined as 0.0041 s⁻¹; in assay [4] it was 0.002 s⁻¹; in assay [5] it was 0.0022 s⁻¹; in assay [6], 0.00051 s⁻¹; in assay [8], 0.033 s⁻¹. Also, in assay [6], binding was put at a Kd of 1.76 nM. Also, in assay [7], the on-rate constant (kon) was 290000 M⁻¹ s⁻¹.

B6: anti-CI-M6PR VHH6 (VHH)
VHH: QVQLQESGGGLVQAGGSLRLSCAVSGSISSIGGMGWFRQAPGKQREFVAVILNNSGMTSYADSVKGRFTISRGNSKNTMYLQMNSLKPEDTAVYYCNYSGYWGQGTQVTVSS
modifications: Alexa Fluor 488 NHS ester label on amines
notes: Tag not specified
On to B6, for which the binding result in assay [1] is given as “no binding (tested: 7.5 µM)”.

B7: anti-CI-M6PR VHH2 (VHH)
VHH: QVQLQESGGGLVQPGGSLRLSCVFSGRTFMSYDVGWFRQAPGKERELLSSITSSSSSPYYAESVKGRFAVSRDGAKKTVYLRMNSLEPEDTAVYYCAARENWRNDWQYWGQTQVTVSS
modifications: Alexa Fluor 488 NHS ester label on amines
notes: Tag not specified
Take B7: the binding result in assay [1] is listed as “no binding (tested: 7.5 µM)”.

B8: anti-CI-M6PR VHH1 (VHH)
VHH: QVQLQESGGGLVQPGGSLRLSCVASGFTFDRYWMNWLRQIPGKEIEWVSTINTGGTGTYYDDSVKGRFSISRDDAKNTLYLTMNSLKTEDTAVYYCARGATYYRGNSAIRGQGTQVTVSS
As to B8, the “internalisation rate (live-cell imaging of AF488-VHH on MCF7 cells)” value in assay [2] came out at 1.38e+06 summed AF-voxels/minute.

B9: anti-CI-M6PR VHH10 (VHH)
VHH: QVQLQESGGGSVQAGGSLRLSCAPAGRTFSRIRMGWFRQAPGKEREFVAAISSGGLSYYADSMKGRFTISRDNAKNTVLLQMNSLEPDDTAVYYCAAVLNDYIDDYVARNPTLYDYWGQGTQVTVSS
modifications: Alexa Fluor 488 NHS ester label on amines
notes: Tag not specified
With B9, the binding result in assay [1] was “no binding (tested: 7.5 µM)”.

B10: anti-CI-M6PR VHH9 (VHH)
VHH: QVQLQESGGGLVQAGGSLRLSCAASGTILSIKTMGWYRQAPGKEREWVATITSSSIPMYADSVKGRFTISRDDAKNTVYLQMNSLKPEDTGVYYCNAPWTDYWGQGTQVTVSS
modifications: Alexa Fluor 488 NHS ester label on amines
notes: Tag not specified
In the case of B10, the binding result in assay [1] is recorded as “no binding (tested: 7.5 µM)”.

B11: anti-CI-M6PR VHH4 (VHH)
VHH: QVQLQESGGGLVQAGGSLRLSCAASGRTFSNYVMGWFRQAPGKEREFVGSISQGGKMTYYPDSVKGRFTISRDNAKNTMYLQMDGLKPEDTAVYYCAVSRGYPMVRVSEVDYWGQGTQVTVSS
modifications: Alexa Fluor 488 NHS ester label on amines
notes: Tag not specified
B11: the binding result in assay [1] was “no binding (tested: 7.5 µM)”.

B12: anti-CI-M6PR VHH3 (VHH)
VHH: QVQLQESGGGLVQPGGSLRLSCAAFGLNFKNFDMIWFRQAPGEERDIVAAISSSSSTIWYEDSVKGRFTISRDNAKNTVYLQMNSLKPEDTAVYYCAAALTSWRRPDYWGQGTQVTVSS
modifications: Alexa Fluor 488 NHS ester label on amines
notes: Tag not specified
On to B12, for which, in assay [1], the binding result is “no binding (tested: 7.5 µM)”.

B13: humanized variant VHH7h3 (VHH)
VHH: DVQLVESGGGLVQPGGSLRLSCAASGIIFSDNRMDWYRQAPGKQREWVATLASYGWKTYADSVKGRFTISRDNTKNTVYLQMNSLRPEDTAVYYCKASSPVLNDIWGQGTLVTVSS
notes: as for B3
In the case of B13, the koff in assay [3] amounted to 0.015 s⁻¹; in assay [4], 0.013 s⁻¹; in assay [5], 0.011 s⁻¹; in assay [6], 0.0064 s⁻¹; in assay [8] it was 0.019 s⁻¹. In assay [6], this molecule returned a Kd of 14 nM. Also, in assay [7], the kon worked out at 460000 M⁻¹ s⁻¹.

B14: humanized variant VHH7h2 (VHH)
VHH: DVQLVESGGGLVQPGGSLRLSCAASGIIFSDNRMDWYRQAPGKQREWVATLASYGWKTYADSVKGRFTISRDNSKNTVYLQMNSLRPEDTAVYYCKASSPVLNDIWGQGTLVTVSS
notes: as for B3
On to B14, for which the koff in assay [3] was 0.014 s⁻¹; in assay [4], 0.011 s⁻¹; in assay [5], 0.0094 s⁻¹; in assay [6] it was 0.0064 s⁻¹; in assay [8], 0.019 s⁻¹. The molecule further showed a dissociation constant Kd in assay [6] of 13.6 nM. For the same molecule, the on-rate constant (kon) in assay [7] came out at 470000 M⁻¹ s⁻¹.

B15: humanized variant VHH7h1 (VHH)
VHH: EVQLVESGGGLVQPGGSLRLSCAASGIIFSDNRMDWYRQAPGKQREWVATLASYGWKTYADSVKGRFTISRDNSKNTVYLQMNSLRPEDTAVYYCKASSPVLNDIWGQGTLVTVSS
notes: as for B3
B15: the off-rate constant (koff) in assay [3] was 0.014 s⁻¹; in assay [4], 0.012 s⁻¹; in assay [5], 0.0097 s⁻¹; in assay [6] it was 0.0071 s⁻¹; in assay [8] it was 0.02 s⁻¹. Besides, in assay [6], the equilibrium dissociation constant (Kd) stood at 14.1 nM. For the same molecule, the kon in assay [7] was 500000 M⁻¹ s⁻¹.
